The target in the experiment is recombinant human VEGF165 protein (human) (UniProt P15692). Description: cell-based or functional assay.

Chain of EYLEA (Aflibercept) (Fc fusion) (chain): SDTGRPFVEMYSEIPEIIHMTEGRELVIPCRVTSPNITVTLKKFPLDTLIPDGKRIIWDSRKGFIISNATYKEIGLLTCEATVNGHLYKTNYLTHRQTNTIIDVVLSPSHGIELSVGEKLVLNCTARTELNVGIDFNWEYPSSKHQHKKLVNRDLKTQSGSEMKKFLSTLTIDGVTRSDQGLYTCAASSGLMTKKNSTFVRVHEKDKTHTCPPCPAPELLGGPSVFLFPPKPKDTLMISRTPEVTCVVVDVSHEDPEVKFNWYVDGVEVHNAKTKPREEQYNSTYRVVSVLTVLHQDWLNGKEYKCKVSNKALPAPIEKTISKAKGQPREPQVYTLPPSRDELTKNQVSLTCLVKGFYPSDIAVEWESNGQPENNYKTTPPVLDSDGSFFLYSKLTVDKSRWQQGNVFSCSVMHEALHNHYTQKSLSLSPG
Chain of Conbercept (Fc fusion) (chain): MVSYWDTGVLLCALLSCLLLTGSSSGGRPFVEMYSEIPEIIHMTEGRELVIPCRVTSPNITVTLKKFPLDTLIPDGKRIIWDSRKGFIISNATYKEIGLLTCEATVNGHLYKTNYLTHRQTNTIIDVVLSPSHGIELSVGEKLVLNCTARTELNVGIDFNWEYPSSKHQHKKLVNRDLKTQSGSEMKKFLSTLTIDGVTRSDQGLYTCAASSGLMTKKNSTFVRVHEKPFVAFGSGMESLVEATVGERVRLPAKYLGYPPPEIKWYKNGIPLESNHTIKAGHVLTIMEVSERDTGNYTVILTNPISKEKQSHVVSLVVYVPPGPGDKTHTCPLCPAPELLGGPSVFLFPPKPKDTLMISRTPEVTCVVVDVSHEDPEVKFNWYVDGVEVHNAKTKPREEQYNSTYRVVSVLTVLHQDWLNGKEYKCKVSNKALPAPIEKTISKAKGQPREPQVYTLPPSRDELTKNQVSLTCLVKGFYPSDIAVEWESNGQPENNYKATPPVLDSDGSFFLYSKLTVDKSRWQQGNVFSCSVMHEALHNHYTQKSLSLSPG

In the case of Conbercept (Fc fusion), the EC50(nM), neutralization of HUVEC proliferation, VEGF165 at 10 ng/mL is 0.18 nM; the EC50(nM), neutralization of HUVEC proliferation, VEGF165 at 100 ng/mL came to 2.86 nM; the EC50(nM), neutralization of HUVEC proliferation, VEGF165 at 1000 ng/mL came out at 29 nM; the Maximum neutralization rate (%), VEGF165 at 10 ng/mL amounted to 102%. For the same substance, the Maximum neutralization rate (%), VEGF165 at 100 ng/mL is 99.7% and the Maximum neutralization rate (%), VEGF165 at 1000 ng/mL turned out to be 108%.

In the case of EYLEA (Aflibercept) (Fc fusion), the EC50(nM), neutralization of HUVEC proliferation, VEGF165 at 10 ng/mL came to 0.15 nM; the EC50(nM), neutralization of HUVEC proliferation, VEGF165 at 100 ng/mL was found to be 2.56 nM; the EC50(nM), neutralization of HUVEC proliferation, VEGF165 at 1000 ng/mL stood at 32.4 nM; the Maximum neutralization rate (%), VEGF165 at 10 ng/mL amounted to 92.7%. In addition, the Maximum neutralization rate (%), VEGF165 at 100 ng/mL was 89.6% and the Maximum neutralization rate (%), VEGF165 at 1000 ng/mL turned out to be 76.7%.
